PMC7245740, “Hydrogen peroxide-producing pyruvate oxidase from Lactobacillus delbrueckii is catalytically activated by phosphotidylethanolamine” (BMC Microbiology, 2020)
Where “and” joins values, the source holds several entries; their conditions need not be identical. Equal entries are not always repeated.

How the values were obtained:
Δ34 Pox = target: T1, Δ34 Pox (Lactobacillus delbrueckii, UniProt Q1G7Z6); assay: fold activity relative to no phospholipid, same coupled assay; type: biochemical; settings: activator; 50 mM pyruvate, 50 mM phosphate, 15 μM FAD, 300 μM TPP, pH 5.6, 25 °C; lipid suspension
T1 construct: gene pox1; C-terminal truncation lacking the last 34 residues, C-terminal His6, vector pFLAG-CTC, expressed in E. coli LOBSTR
T1 sequence (Q1G7Z6 1-582): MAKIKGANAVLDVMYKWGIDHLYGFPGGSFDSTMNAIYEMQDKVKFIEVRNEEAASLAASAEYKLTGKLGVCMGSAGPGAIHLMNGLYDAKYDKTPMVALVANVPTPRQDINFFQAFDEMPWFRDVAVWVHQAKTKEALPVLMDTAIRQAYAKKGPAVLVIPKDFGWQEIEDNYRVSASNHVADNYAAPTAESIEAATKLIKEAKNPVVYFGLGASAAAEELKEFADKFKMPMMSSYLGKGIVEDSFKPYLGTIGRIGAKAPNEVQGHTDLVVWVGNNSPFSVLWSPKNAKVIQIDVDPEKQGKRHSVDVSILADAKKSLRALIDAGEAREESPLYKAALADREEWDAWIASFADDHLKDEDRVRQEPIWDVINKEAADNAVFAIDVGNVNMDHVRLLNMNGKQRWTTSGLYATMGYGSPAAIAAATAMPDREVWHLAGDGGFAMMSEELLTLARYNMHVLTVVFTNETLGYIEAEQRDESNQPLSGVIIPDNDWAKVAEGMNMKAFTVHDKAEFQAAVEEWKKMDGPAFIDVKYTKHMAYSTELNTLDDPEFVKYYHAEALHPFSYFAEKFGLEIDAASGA

[1] = target: Pyruvate oxidase (Pox) from Lactobacillus delbrueckii strain STYM1 (Lactobacillus delbrueckii STYM1); assay: SEC; Superdex 200, 20 mM Bis-Tris pH 6, 150 mM NaCl, 0.5 mL/min; 840 ug purified Pox pre-incubated with 50 mM pyruvate, 300 uM TPP, 15 uM FAD for 10 min at room temperature; molecular weight from a standard curve of protein standards
[2] = target: Pyruvate oxidase (Pox) from Lactobacillus delbrueckii strain STYM1 (Lactobacillus delbrueckii STYM1); assay: non-reducing SDS-PAGE; Coomassie stain of gel filtration fractions and of purified Pox after SDS-PAGE under non-reducing conditions; disulfide-linked dimer

Row | stoichiometry N [1] | stoichiometry N [2] | Compound | fold activity (Δ34 Pox)
1 | – | – | CCCCCCCC/C=C\CCCCCCCC(=O)O[C@H](COC(=O)CCCCCCCCCCCCCCC)COP(=O)(O)OCCN [phosphotidylethanolamine (16:0–18:1)] | ~ 2 fold
2 | 10 and 5 | 2 | Pyruvate oxidase (Pox) from Lactobacillus delbrueckii strain STYM1 (enzyme) | –
